Substitutions are numbered along the chain they refer to. Starred links: 1 amine or outer side, 2 acyl side, 3 side chain; linkers in the order of their positions; H or OH if unused. Non-standard residues stand in square brackets, D forms with d. Groups on a side chain read outwards from the residue. No end group written: not given here. *: point of attachment. C20 diacid = O=C(O)CCCCCCCCCCCCCCCCCCC(=O)*; αMePhe(2-F) = C[C@](N)(Cc1ccccc1F)C(=O)O; γGlu = O=C(O)[C@H](CCC(=O)[*:2])N[*:1]; NMeY = CN[C@@H](Cc1ccc(O)cc1)C(=O)O; αMeF = C[C@](N)(Cc1ccccc1)C(=O)O; AEEA = NCCOCCOCC(=O)O; Aib = CC(C)(N)C(=O)O
T1: human GIP receptor (human) (UniProt P48546)
T1 sequence (looked up): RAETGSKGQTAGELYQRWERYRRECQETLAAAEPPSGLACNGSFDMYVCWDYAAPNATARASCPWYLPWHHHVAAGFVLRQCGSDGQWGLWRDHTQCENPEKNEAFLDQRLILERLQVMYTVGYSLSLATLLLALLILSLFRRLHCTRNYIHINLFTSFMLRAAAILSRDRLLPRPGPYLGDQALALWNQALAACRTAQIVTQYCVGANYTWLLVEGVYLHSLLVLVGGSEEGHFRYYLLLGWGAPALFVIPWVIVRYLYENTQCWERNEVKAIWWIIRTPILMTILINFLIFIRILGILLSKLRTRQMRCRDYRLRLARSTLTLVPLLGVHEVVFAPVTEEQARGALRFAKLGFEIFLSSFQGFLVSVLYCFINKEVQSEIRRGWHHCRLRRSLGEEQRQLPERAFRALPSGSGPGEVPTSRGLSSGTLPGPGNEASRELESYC

B1: Example 271 (peptide)
chain: YXQGTFTSDFSXXLDKKAQXAFIEWLLEGGHSSGAPPPGGE
modifications: synthetic construct; SITE 2: note = 2-Aminoisobutyric Acid; SITE 12: note = L-ornithine; SITE 13: note = alpha-methyl-leucine; SITE 17: note = Lysine is chemically modified through conjugation of the epsilon-amino group of the Lysine side chain with (2-[2-(2-Amino-ethoxy)-ethoxy]-acetyl)2-(gamma-Glu)
B2: Example 272 (peptide)
chain: B1 chain with H31S, E41T
modifications: synthetic construct; SITE 2: note = 2-Aminoisobutyric Acid; SITE 12: note = L-ornithine; SITE 13: note = alpha-methyl-leucine; SITE 17: note = Lysine is chemically modified through conjugation of the epsilon-amino group of the Lysine side chain with (2-[2-(2-Amino-ethoxy)-ethoxy]-acetyl)-(gamma-Glu)
B3: Example 273 (peptide)
chain: B1 chain
modifications: synthetic construct; SITE 2: note = 2-Aminoisobutyric Acid; SITE 12: note = L-ornithine; SITE 13: note = alpha-methyl-leucine; SITE 17: note = Lysine is chemically modified through conjugation of the epsilon-amino group of the Lysine side chain with (2-[2-(2-Amino-ethoxy)-ethoxy]-acetyl)-(gamma-Glu)
B4: Example 274 (peptide)
chain: YXQGTFTSDXSXXLDKKAQXAFIEYLLEAGPSSGAPPPSGX
modifications: synthetic construct; SITE 2: note = 2-Aminoisobutyric Acid; SITE 10: note = 3-(4-Pyridyl)-L-alanine; SITE 12: note = L-ornithine; SITE 13: note = alpha-methyl-leucine; SITE 17: note = Lysine is chemically modified through conjugation of the epsilon-amino group of the Lysine side chain with (2-[2-(2-
B5: Example 275 (peptide)
chain: B4 chain with G34X, X41T
modifications: synthetic construct; SITE 2: note = 2-Aminoisobutyric Acid; SITE 10: note = 3-(4-Pyridyl)-L-alanine; SITE 12: note = L-ornithine; SITE 13: note = alpha-methyl-leucine; SITE 17: note = Lysine is chemically modified through conjugation of the epsilon-amino group of the Lysine side chain with (2-[2-(2-
B6: Example 277 (peptide)
chain: B4 chain with X10F, A29X
modifications: synthetic construct; SITE 2: note = 2-Aminoisobutyric Acid; SITE 12: note = L-ornithine; SITE 13: note = alpha-methyl-leucine; SITE 17: note = Lysine is chemically modified through conjugation of the epsilon-amino group of the Lysine side chain with (gamma-Glu)-(2-[2-(2-Amino-ethoxy)-ethoxy]-acetyl)
B7: Example 281 (peptide)
chain: YXQGTFTSDXSKXLDKKAQXAFIEYLIEXGESSGEPPPSGE
modifications: synthetic construct; SITE 2: note = 2-Aminoisobutyric Acid; SITE 10: note = 3-(4-Pyridyl)-L-alanine; SITE 13: note = alpha-methyl-leucine; SITE 17: note = Lysine is chemically modified through conjugation of the epsilon-amino group of the Lysine side chain with (2-[2-(2-Amino-ethoxy)-ethoxy]-acetyl)
B8: Example 283 (peptide)
chain: B7 chain with X29A, E35A, E41S
modifications: synthetic construct; SITE 2: note = 2-Aminoisobutyric Acid; SITE 10: note = 3-(4-Pyridyl)-L-alanine; SITE 13: note = alpha-methyl-leucine; SITE 17: note = Lysine is chemically modified through conjugation of the epsilon-amino group of the Lysine side chain with (2-[2-(2-Amino-ethoxy)-ethoxy]-acetyl)
B9: Example 284 (peptide)
chain: B7 chain with X29A, E41S
modifications: synthetic construct; SITE 2: note = 2-Aminoisobutyric Acid; SITE 10: note = 3-(4-Pyridyl)-L-alanine; SITE 13: note = alpha-methyl-leucine; SITE 17: note = Lysine is chemically modified through conjugation of the epsilon-amino group of the Lysine side chain with (2-[2-(2-Amino-ethoxy)-ethoxy]-acetyl)
B10: Example 286 (peptide)
chain: B7 chain with E28A
modifications: synthetic construct; SITE 2: note = 2-Aminoisobutyric Acid; SITE 10: note = 3-(4-Pyridyl)-L-alanine; SITE 13: note = alpha-methyl-leucine; SITE 17: note = Lysine is chemically modified through conjugation of the epsilon-amino group of the Lysine side chain with (2-[2-(2-Amino-ethoxy)-ethoxy]-acetyl)
B11: Example 287 (peptide)
chain: B7 chain with E28A, E41S
modifications: synthetic construct; SITE 2: note = 2-Aminoisobutyric Acid; SITE 10: note = 3-(4-Pyridyl)-L-alanine; SITE 13: note = alpha-methyl-leucine; SITE 17: note = Lysine is chemically modified through conjugation of the epsilon-amino group of the Lysine side chain with (2-[2-(2-Amino-ethoxy)-ethoxy]-acetyl)
B12: Example 292 (peptide)
chain: YXQGTXTSDYSKXLDKKAQXQFIEYLEEGGPSSGEPPPSEG
modifications: synthetic construct; SITE 2: note = 2-Aminoisobutyric Acid; SITE 6: note = alpha-methyl-2-fluoro-L-phenylalanine; SITE 13: note = alpha-methyl-leucine; SITE 17: note = Lysine is chemically modified through conjugation of the epsilon-amino group of the Lysine side chain with (2-[2-(2-Amino-ethoxy)-et)

biological target: hGLP-1R (Homo sapiens, UniProt P43220); assay: cell-based or functional assay
Sequence (P43220 24-463): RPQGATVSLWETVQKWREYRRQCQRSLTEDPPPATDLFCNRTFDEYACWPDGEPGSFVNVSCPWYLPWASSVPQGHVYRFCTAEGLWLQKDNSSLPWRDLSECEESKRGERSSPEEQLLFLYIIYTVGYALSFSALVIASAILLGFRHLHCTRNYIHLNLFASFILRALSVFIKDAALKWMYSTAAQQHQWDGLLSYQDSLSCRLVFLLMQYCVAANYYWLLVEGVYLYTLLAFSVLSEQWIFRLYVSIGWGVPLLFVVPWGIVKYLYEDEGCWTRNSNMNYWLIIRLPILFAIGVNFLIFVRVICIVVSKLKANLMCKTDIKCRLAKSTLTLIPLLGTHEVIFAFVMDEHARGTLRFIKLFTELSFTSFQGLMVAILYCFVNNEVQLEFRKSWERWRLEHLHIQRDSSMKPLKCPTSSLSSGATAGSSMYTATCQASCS

| Binder | Relative cAMP EC50 [nM] | cAMP Rel EC50 (in the presence of 1% HSA) [nM] | cAMP Rel EC50 (1% HSA) [nM] |
| --- | --- | --- | --- |
| B1 | 5 | 887 | – |
| B2 | 2.62 | 486 | – |
| B3 | 4.02 | 516 | – |
| B4 | 4.9 | 560 | – |
| B5 | 4.93 | 692 | – |
| B6 | 5.56 | 639 | – |
| B7 | 1.6 | 295 | – |
| B8 | 1.16 | 233 | – |
| B9 | 1.54 | 271 | – |
| B10 | 3.45 | 925 | – |
| B11 | 4.25 | 562 | – |
| B12 | 1.03 | 129 | – |
| [NMeY][Aib]QGT[αMeF]TSDYSILLDKIAAKAFIEYLIEGGPSSGEPPPSEG-NH2 (not fully specified (residue 20)) [Example 299] | 0.963 | – | 380 |
| Y[Aib]QGT[αMePhe(2-F)]TSDYSKLLDEIAQKAFIEYLLEGGPSSGEPPPSEG-NH2 (not fully specified (residue 20)) [Example 303] | 1.13 | – | 257 |

biological target: human glucagon receptor (human) (UniProt P47871); assay: cell-based or functional assay
Sequence (P47871 26-477): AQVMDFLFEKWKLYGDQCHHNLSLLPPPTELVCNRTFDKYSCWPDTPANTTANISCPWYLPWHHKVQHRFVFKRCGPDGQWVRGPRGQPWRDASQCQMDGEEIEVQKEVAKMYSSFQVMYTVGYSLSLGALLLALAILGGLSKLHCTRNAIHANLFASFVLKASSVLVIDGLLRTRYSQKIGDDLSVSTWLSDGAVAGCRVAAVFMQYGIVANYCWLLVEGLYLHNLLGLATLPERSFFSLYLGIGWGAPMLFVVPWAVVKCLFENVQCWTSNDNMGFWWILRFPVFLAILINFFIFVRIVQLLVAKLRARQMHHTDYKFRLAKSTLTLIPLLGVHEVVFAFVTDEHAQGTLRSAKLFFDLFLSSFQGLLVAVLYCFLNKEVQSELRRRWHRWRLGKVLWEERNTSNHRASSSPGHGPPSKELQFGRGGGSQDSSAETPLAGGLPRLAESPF

| Binder | Relative cAMP EC50 [nM] | cAMP Rel EC50 (in the presence of 1% HSA) [nM] | cAMP Rel EC50 (1% HSA) [µM] |
| --- | --- | --- | --- |
| B1 | 8.51 | 2680 | – |
| B2 | 7.91 | 1540 | – |
| B3 | 6.96 | 1770 | – |
| B4 | 9.37 | 1120 | – |
| B5 | 7.8 | 882 | – |
| B6 | 10.6 | 1690 | – |
| B7 | 13.7 | 1370 | – |
| B8 | 9.73 | 1470 | – |
| B9 | 9.21 | 1530 | – |
| B10 | 2.2 | 228 | – |
| B11 | 2.53 | 291 | – |
| B12 | 1.84 | 583 | – |
| [NMeY][Aib]QGT[αMeF]TSDYSILLDKIAAKAFIEYLIEGGPSSGEPPPSEG-NH2 (not fully specified (residue 20)) [Example 299] | 2.54 | – | 1.7 |
| Y[Aib]QGT[αMePhe(2-F)]TSDYSKLLDEIAQKAFIEYLLEGGPSSGEPPPSEG-NH2 (not fully specified (residue 20)) [Example 303] | 6.1 | – | 9.95 |

biological target: T1, human GIP receptor (human); assay: cell-based or functional assay

| Binder | Relative cAMP EC50 [nM] | cAMP Rel EC50 (in the presence of 1% HSA) [nM] | cAMP Rel EC50 (1% HSA) [nM] |
| --- | --- | --- | --- |
| B1 | 0.152 | 15.7 | – |
| B2 | 0.254 | 36.3 | – |
| B3 | 0.243 | 21.8 | – |
| B4 | 0.296 | 27.6 | – |
| B5 | 0.318 | 27.7 | – |
| B6 | 0.0672 | 13.3 | – |
| B7 | 0.154 | 25.8 | – |
| B8 | 0.225 | 47.2 | – |
| B9 | 0.347 | 59.8 | – |
| B10 | 0.0845 | 11.5 | – |
| B11 | 0.0633 | 9.94 | – |
| B12 | 1.02 | 92.7 | – |
| [NMeY][Aib]QGT[αMeF]TSDYSILLDKIAAKAFIEYLIEGGPSSGEPPPSEG-NH2 (not fully specified (residue 20)) [Example 299] | 0.137 | – | 40.2 |
| Y[Aib]QGT[αMePhe(2-F)]TSDYSKLLDEIAQKAFIEYLLEGGPSSGEPPPSEG-NH2 (not fully specified (residue 20)) [Example 303] | 0.116 | – | 44.7 |

Source: US20240270821A1, “GIP/GLP1/GCG TRI-RECEPTOR AGONISTS AND USES THEREOF” (priority 2023, published 2024)
